Data set [1] in a line: in vitro. To be noted: human, HepG2-hNTCP cells (HepG2-C3A-hNTCP).
Protocol: (§3) HepG2-NTCP Cells (10A and 10C), dHepaRG (10B and 10D), and PHH (10E) were treated with increasing doses of F7 or poly-U/UC PAMP for 72 hours. Cell viability was determined concurrently by measuring ATP content, with values normalized to mock-treated cells. Graph represents the mean of triplicated samples in each of 3 independent experiments, with error bars showing standard deviation.ns=non-significant.
(§4) To determine the values of 90% of maximal Inhibitory concentration (IC90) and half-maximal Inhibitory concentration (IC50), as well as the cytotoxic concentration, CC50, of F7 and poly-U/UC, PAMP, two different cell lines were used, HepG2-hNTCP and dHepaRG cells.
(§5) Cytotoxicity assays: Cytotoxicity was evaluated from cultures of HepG2-C3A -hNTCP and dHepaRG cells using CellTiter-Glo as described (Edwards, T. C., et al. (2019). Inhibition of HBV replication by N-hydroxvisoquinolinedione and N-hydroxypyridinedinone ribonuclease H inhibitors. Antiviral research 164, 70-80). […] Cytotoxicity of each was measured with the ATP content as a measure of cell viability using the CellTiter-Glo™ reagent (Promega) per manufacturer's instructions. The plates were read using a luminescence plate reader (Berthold) and the relative luminescence unit (RLU) data generated from each well was calculated as percent signal compared to the untreated control. […]
Data set [2] can be described thus: in vitro. To be noted: human.
Protocol: as §3, §4, §5
Data set [3] concerns dHepaRG cells. In words: Cytotoxicity, cellular ATP content (CellTiter-Glo), dHepaRG. To be noted: 72 hours (FIG. 10D), 23.49 nM = 800 ng/ml. In general terms: In ATP-based viability assays light output follows the ATP content of the culture.
Protocol: as §3, §4, §5
In data set [4] the test system is HBV cccDNA. Kind of data set: cccDNA levels in HBV-infected primary human hepatocytes (Southern blot). Type of data set: cell-based, HBV (Genotype D). As to conditions: PHH, HBV 200 Geq/cell, single treatment at 1 dpi, harvested 3 dpi. Here is the method: (§1) FIGS. 7A-7C illustrate suppression of cccDNA in primary human hepatocytes. (7A) PHH were cultured alone or were treated with 100 ng/ml X-RNA (X100), or 50 ng/ml (P50), 100 ng/ml (P100) or 200 ng/ml (P200) poly-U/UC PAMP or were infected with SenV (control) and harvested 24 and 72 hours later. The cell lysates were analyzed by immunoblot for p-IRF3 (S386 phosphorylated, active IRF3), IRF3 (total IRF3), IFIT1, and Actin (control) using respective antibodies. (7B) PHH cultures were cultured alone or were treated with 100 ng/ml X-RNA (X100), or 100 ng/ml (P100) or 200 ng/ml (P200) poly-U/UC PAMP or were infected with SenV (control) and harvested 24 and 72 later. Cells were harvested, RNA extracted and analyzed by RT-qPCR to measure the expression levels of the indicated innate immune genes normalized to the level of GAPDH expression. Values are shown on the heat map as mean fold induction over nontreated cells from three independent experiments. (7C) PHH cultures were inoculated with HBV at moi of 200 Geq/cell. […] Three days later the cells were harvested, DNA isolated by isolated Hirt extraction, and analyzed by Southern blot using a HBV-specific probe. […]
(§2) PHH cultures were treated over a poly-U/UC PAMP dose-response and assessed innate immune activation. […]

In data set [5] the test system is IRF3. In words: Innate immune activation in primary human hepatocytes (immunoblot, RT-qPCR). To be noted: PHH, 24 and 72 hours. It is filed as cell-based. Here is the method:
as §1, §2
(In general: In western blotting, separated proteins are transferred to a membrane and probed.)

{ppp} = triphosphate

As for `O=C(Nc1ccc2nc(NC(=O)c3ccc4ccccc4c3)sc2c1)c1ccccc1` [F7, N-(6-benzamido-1,3-benzothiazol-2-yl)naphthalene-2-carboxamide], the CC50 at 72 h in data set [1] and in data set [2] was more than 40 µM throughout.

B1: poly-U/UC PAMP: ~100 nt PAMP motif from the HCV genome comprising 5′ppp and the poly U/UC region, recognized by RIG-I; formulated in liposome (nucleic acid)
chain: GGCCAUCCUGUUUUUUUCCCUUUUUUUUUUUCUUUUUUUUUUUUUUUUUUUUUUUUUUUUUUUUUUCUCCUUUUUUUUUCCUCUUUUUUUCCUUUUCUUUCCUUU
modifications: RNA, 5' {ppp}, backbone and methylation of C not given here; formulated in liposome
notes: ~100 nt PAMP motif from the HCV genome comprising 5′ppp and the poly U/UC region, recognized by RIG-I; formulated in liposome
B1: in data set [3], the CC50 is more than 0.0235 µM. In addition, in data set [4], the cccDNA levels entry is recorded as “suppressed cccDNA levels in the infected PHH to levels similar to CsA treatment”. For the same molecule, the “innate immune gene expression (RT-qPCR)” value in data set [5] was “robustly induced innate immune gene expression”. For the same molecule, in data set [5] (poly-U/UC PAMP 50-200 ng/ml, X-RNA 100 ng/ml), the “IRF3 activation (phosphoserine 386 IRF3) and IFIT1 expression” value is “induced IRF3 activation”.

The record behind these values is patent US20220241314A1, “COMPOSITIONS AND METHODS FOR TREATMENT OF HEPATITIS B VIRUS INFECTION” (priority 2019, published 2022).
